Data reported in PMC8467012.

Molecular target: ErbB3 receptor on cancer cells (human (endogenous in MCF-7, SK-BR-3, BT-474, Hep G2)) (UniProt P21860)
Sequence (P21860 20-1342): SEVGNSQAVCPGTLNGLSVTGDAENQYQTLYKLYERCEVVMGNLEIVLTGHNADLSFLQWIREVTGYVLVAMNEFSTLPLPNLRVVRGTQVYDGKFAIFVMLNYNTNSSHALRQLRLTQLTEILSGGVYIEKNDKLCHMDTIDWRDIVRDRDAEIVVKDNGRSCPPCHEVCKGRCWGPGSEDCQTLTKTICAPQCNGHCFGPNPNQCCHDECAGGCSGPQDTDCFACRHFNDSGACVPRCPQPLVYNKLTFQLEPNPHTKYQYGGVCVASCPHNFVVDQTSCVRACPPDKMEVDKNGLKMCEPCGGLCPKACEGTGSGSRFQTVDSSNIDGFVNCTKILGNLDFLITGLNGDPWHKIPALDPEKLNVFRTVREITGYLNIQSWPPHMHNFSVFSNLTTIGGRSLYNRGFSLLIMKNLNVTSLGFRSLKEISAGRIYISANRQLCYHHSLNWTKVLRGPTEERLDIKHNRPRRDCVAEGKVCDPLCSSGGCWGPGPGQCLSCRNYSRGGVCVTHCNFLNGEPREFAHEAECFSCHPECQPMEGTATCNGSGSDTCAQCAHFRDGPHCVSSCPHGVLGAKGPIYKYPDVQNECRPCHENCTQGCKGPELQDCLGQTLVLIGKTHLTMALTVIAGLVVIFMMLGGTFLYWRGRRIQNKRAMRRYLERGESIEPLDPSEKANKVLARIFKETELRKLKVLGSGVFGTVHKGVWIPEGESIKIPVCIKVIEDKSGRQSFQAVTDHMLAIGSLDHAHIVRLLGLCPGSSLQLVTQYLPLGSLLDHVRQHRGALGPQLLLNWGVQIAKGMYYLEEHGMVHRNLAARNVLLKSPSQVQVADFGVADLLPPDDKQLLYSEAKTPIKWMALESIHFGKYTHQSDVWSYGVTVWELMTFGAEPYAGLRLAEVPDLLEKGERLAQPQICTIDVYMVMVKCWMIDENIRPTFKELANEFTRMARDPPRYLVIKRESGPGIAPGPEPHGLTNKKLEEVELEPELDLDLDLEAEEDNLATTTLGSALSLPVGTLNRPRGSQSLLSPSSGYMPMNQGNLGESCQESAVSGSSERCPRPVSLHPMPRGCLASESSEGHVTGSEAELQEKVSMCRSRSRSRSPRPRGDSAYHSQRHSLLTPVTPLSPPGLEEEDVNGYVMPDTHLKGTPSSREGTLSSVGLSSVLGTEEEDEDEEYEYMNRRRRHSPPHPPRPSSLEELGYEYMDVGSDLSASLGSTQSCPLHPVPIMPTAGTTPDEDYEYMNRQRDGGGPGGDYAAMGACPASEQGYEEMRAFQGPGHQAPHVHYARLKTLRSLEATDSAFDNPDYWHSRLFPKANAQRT

B1: BCD090-P1 (VHH)
VHH: EVQLVQSGGGLVQPGGSLRLSCAASGRTSSKYAMGWFRQAPGKGTEFVATISWSDGSTYYADSVEGRFTISRDNAKNTVYLQMNSLKPEDTAVYYCAAAVDVLAGTFEYEYDYWGQGTLVTVSS
B1 gave an EC50 of inhibition of heregulin-driven proliferation of MCF-7 cells (MTS, 5 days, 50 ng/mL heregulin-1β) of 0.1 µg/mL and an EC50 of inhibition of proliferation of SK-BR-3 cells (MTS, 5 days, 50 ng/mL heregulin-1β) of 15 µg/mL.

B2: BCD090-M2 (VHH)
VHH: QVQLVQSGGGLVQAGGSLRLSCAFSGRTFSMYTMGWFRQAPGKEREFVAANRGRGLSPDIADSVNGRFTISRDNAKNTLYLQMDSLKPEDTAVYYCAADLQYGSSWPQRSSAEYDYWGQGTTVTVSS
Binder B2 has an EC50 of inhibition of heregulin-driven proliferation of MCF-7 cells (MTS, 5 days, 50 ng/mL heregulin-1β); blocks heregulin binding to ErbB3 of 25 µg/mL and an EC50 of inhibition of proliferation of SK-BR-3 cells (MTS, 5 days, 50 ng/mL heregulin-1β); blocks heregulin binding to ErbB3 of 3 µg/mL.
